Laboratory results published in paper PMC8406172, “Mechanism of DNA Interaction and Translocation by the Replicase of a Circular Rep-Encoding Single-Stranded DNA Virus” (mBio, 2021).

Legend:
[1] = tested on: Nc1nc2c(ncn2[C@@H]2O[C@H](COP(=O)(O)OP(=O)(O)OP(=O)(O)O)[C@@H](O)[C@H]2O)c(=O)[nH]1; assay: purified protein; conditions: 66 nM Rep, room temperature; copurifying DNA present
Text: (§1) NTP/NADH-coupled spectrophotometric assay (pyruvate kinase / lactate dehydrogenase) on PCV2 Rep (replicase)

[2] = tested on: Nc1ccn([C@@H]2O[C@H](COP(=O)(O)OP(=O)(O)OP(=O)(O)O)[C@@H](O)[C@H]2O)c(=O)n1; assay: purified protein; conditions: 66 nM Rep, room temperature; copurifying DNA present
Text: as §1

[3] = tested on: O=c1ccn([C@@H]2O[C@H](COP(=O)(O)OP(=O)(O)OP(=O)(O)O)[C@@H](O)[C@H]2O)c(=O)[nH]1; assay: purified protein; conditions: 66 nM Rep, room temperature; copurifying DNA present
Text: as §1

[4] = molecular target: porcine circovirus 2 (PCV2) replicase (Rep) (porcine circovirus 2 (PCV2b)); assay: cryo-EM structure

PCV2 Rep (replicase) (Porcine circovirus 2)
K0.5 [1]: 577.2 µM | kcat [1]: 0.56 s⁻¹ | K0.5 [2]: 284.4 µM | kcat [2]: 0.16 s⁻¹ | K0.5 [3]: 78.5 µM | kcat [3]: 0.24 s⁻¹

porcine circovirus 2 (PCV2) replicase (Rep) (enzyme)
stoichiometry N [4]: 6
